From patent US12252534 (Scripps Research, dated 2025)
Residue numbers refer to the chain shown, from its start. Names and notes keep the numbering of the source. Read-outs that look alike come from different tables or passages of the source.

B1: HuL3H2 (Fab, V domains shown)
VH: EVQLVESGGGLVQPGGSLKLSCAASGFTFNTYAMNWVRQASGKGLEWVARIRSKYNNYATYYADSVKDRFTISRDDSKNTLYLQMNSLKTEDTAVYYCVRHGNFGNSYVSWFAYWGQGTLVTVSS
VL: QAVVTQEPSLTVSPGGTVTLTCGSSTGAVTTSNYANWVQQKPGQAFRGLIGGTNKRAPWTPARFSGSLLGGKAALTISGAQPEDEAEYYCALWYSNLWVFGGGTKLTVL
notes: Humanized Fab expressed in Expi293F; also called VL3 + VH2 humanized Fab
B2: Murine anti-CD3 (antibody, V domains shown)
VH: B1 VH with G15K, S41P, K78Q, N79S, T80I, S87N, V95M
VL: QAVVTQESALTTSPGETVTLTCRSSTGAVTTSNYANWVQEKPDHLFTGLIGGTNKRAPGVPARFSGSLIGDKAALTITGAQTEDEAIYFCALWYSNLWVFGGGTKLTVL
notes: also called murine anti-CD3 VL/VH
B3: huL5H2 (SEQ ID NOS: 40, 42), pAcF double mutant Fab, unconjugated (Fab, V domains shown)
VH: B1 VH
VL: QAVVTQEPSLTVSPGGTVTLTCRSSTGAVTTSNYANWVQQKPDHLFRGLIGGTNKRAPGTPARFSGSLLGDKAALTISGAQPEDEAEYYCALWYSNLWVFGGGTKLTVLK
modifications: p-acetylphenylalanine (pAcF) in place of S205 (S205TAG); p-acetylphenylalanine (pAcF) in place of K141 (K141TAG)
notes: Expressed in E. coli with an orthogonal tRNA/synthetase; also called VL5 kappa 205TAG + H2 141TAG
B4: huL5H2 (heavy chain SEQ ID NO: 41 and light chain SEQ ID NO: 39) (Fab, V domains shown)
VH: B1 VH
VL: B3 VL
notes: also called VL5 kappa + H2 Fab
B5: HuL9H2 (Fab, V domains shown)
VH: B1 VH
VL: B1 VL with W59G, T60V, A62D
notes: Humanized Fab expressed in Expi293F; also called VL9 + VH2 humanized Fab
B6: HuL2H2 (Fab, V domains shown)
VH: B1 VH
VL: B1 VL with G51Y
notes: Humanized Fab expressed in Expi293F; also called VL2 + VH2 humanized Fab
B7: HuL7H2 (Fab, V domains shown)
VH: B1 VH
VL: B1 VL with G23R, W59G, G71D
notes: Humanized Fab expressed in Expi293F; also called VL7 + VH2 humanized Fab
B8: HuL8H2 (Fab, V domains shown)
VH: B1 VH
VL: B1 VL with G43D, Q44H, A45L, W59G
notes: Humanized Fab expressed in Expi293F; also called VL8 + VH2 humanized Fab
B9: HuL6H2 (Fab, V domains shown)
VH: B1 VH
VL: B1 VL with G23R, V38F, G43D, Q44H, A45L, F46P, G48T, G51Y, W59G, G71D
notes: Humanized Fab expressed in Expi293F; also called VL6 + VH2 humanized Fab
B10: HuL1H1 (Fab, V domains shown)
VH: B1 VH with A49G
VL: B1 VL with V38F, F46P, G48T, G51Y
notes: Detected with anti-human kappa; also called VL1 + VH1 humanized Fab
B11: HuL10H2 (Fab, V domains shown)
VH: B1 VH
VL: B2 VL with S8P, A9S, E16G, E40Q, T78S, T82P, I87E, F89Y
notes: Humanized Fab expressed in Expi293F; also called VL10 + VH2 humanized Fab
B12: DI-huL5H2 (SEQ ID NOS: 40, 44), de-immunized pAcF mutant Fab, unconjugated (Fab, V domains shown)
VH: B1 VH with K19R, S41P, K89R, T90A
VL: B3 VL
modifications: p-acetylphenylalanine (pAcF) at light chain position 205 (205TAG); p-acetylphenylalanine (pAcF) at heavy chain position 141 (141TAG)
notes: The heavy chain carries the de-immunizing mutations K19R, S41P, K89R and T90A relative to huL5H2; also called huL5H2_DI
B13: huL5H2_DI-2×DUPA (SEQ ID NOS: 40, 44) (Fab, V domains shown)
VH: B1 VH with K19R, S41P, K89R, T90A
VL: B3 VL
modifications: pAcF at position 205 conjugated by oxime to p-TriA (DUPA-linker); pAcF at position 141 conjugated by oxime to p-TriA (DUPA-linker)
notes: De-immunized Fab with one DUPA on the heavy chain and one on the light chain; also called L5H2-DI-2X-DUPA; L5H2_DI-2xDUPA
B14: HuL4H2 (Fab, V domains shown)
VH: B1 VH
VL: B1 VL with G51Y, G71D
notes: Humanized Fab expressed in Expi293F; also called VL4 + VH2 humanized Fab
B15: UCHT-1-p-TriA (2×DUPA) (Fab, V domains shown)
VH: EVQLVESGGGLVQPGGSLRLSCAASGYSFTGYTMNWVRQAPGKGLEWVALINPYKGVSTYNQKFKDRFTISVDKSKNTAYLQMNSLRAEDTAVYYCARSGYYGDSDWYFDVWGQGTLVTVSS
VL: DIQMTQSPSSLSASVGDRVTITCRASQDIRNYLNWYQQKPGKAPKLLIYYTSRLESGVPSRFSGSGSGTDYTLTISSLQPEDFATYYCQQGNTLPWTFGQGTKVEIKR
modifications: one pAcF conjugated to p-TriA (DUPA-linker); position in UCHT-1 not stated

Columns and labels:
[1] = biological target: T1, human CD3 on human T cells (Jurkat) (human, UniProt P07766 23-207; P04234 22-171; P09693 23-182); assay: flow cytometry titration on Jurkat cells
T1 construct: whole, on cells; also called huCD3+; cell surface CD3 on human (Jurkat) T cells
Source text: (§1) To express humanized Fabs in mammalian cells, VH genes (VH1 and VH2) and VL genes (VL1~VL10) shown in FIG. 2 were individually cloned into the pFUSE vector under the IL2 signal peptide sequence. Light and heavy chains expression vectors were used to co-transfect Expi293F cells according to manufacturer's protocol. On day 3 or 4, cultured media was harvested and secreted Fabs were purified by Protein G chromatography. Binding affinity of humanized candidates for human and cynomolgus T cells were evaluated by flow cytometry. Briefly, cells were incubated with humanized Fabs at 4° C. for 30 min and washed twice with staining buffer (1% BSA in PBS). […] After several washes, samples were acquired on a BD LSR II or BD Accuri C6 and analyzed using FlowJo 7.6.2 software.

[2] = biological target: T1, human CD3 on human T cells (Jurkat); assay: flow cytometry, Jurkat cells, 8 nM antibody
Source text: as §1

[3] = biological target: T1, human CD3 on human T cells (Jurkat); assay: flow cytometry, Jurkat cells, 40 nM antibody
Source text: as §1

[4] = biological target: T1, human CD3 on human T cells (Jurkat); assay: flow cytometry, Jurkat cells, 1.6 nM antibody
Source text: as §1

[5] = biological target: T1, human CD3 on human T cells (Jurkat); assay: flow cytometry, Jurkat cells, 200 nM antibody
Source text: as §1

[6] = biological target: T1, human CD3 on human T cells (Jurkat); assay: flow cytometry, Jurkat cells, 0.32 nM antibody
Source text: as §1

[7] = biological target: T1, human CD3 on human T cells (Jurkat); assay: flow cytometry, Jurkat cells, 1000 nM antibody
Source text: as §1

[8] = biological target: T1, human CD3 on human T cells (Jurkat); assay: flow cytometry, Jurkat cells, 0 nM antibody (background)
Source text: as §1

[9] = biological target: T2, cynomolgus CD3 on cynomolgus T cells (HSC-F) (cynomolgus monkey, UniProt Q95LI5 22-198; Q95LI8 22-171; Q95LI7 23-181); assay: flow cytometry titration on HSC-F cells
T2 construct: whole, on cells; also called cyCD3+; cell surface CD3 on cynomolgus (HSC-F) T cells
Source text: (§2) Flow cytometry was used to assess for potential differential binding to cell surface CD3 on human (Jurkat) and cynomolgus T cells as a result of the "de-immunization" process. […] After several washes, samples were acquired on a BD LSRII or BD Accuri C6 and analyzed using FlowJo software.

[10] = biological target: T1, human CD3 on human T cells (Jurkat); assay: flow cytometry titration on Jurkat cells; remark: listed apart in the source
Source text: as §2

[11] = biological target: T3, recombinant human CD3 delta/epsilon complex (hu.CD3 d/e-Fc) (human, UniProt P04234 22-105; P07766 23-126); assay: Octet (BLI), hu.CD3de-Fc captured on Fc sensor, conjugate as analyte; unit inferred, M implied
T3 construct: not shown: Fc portion
Procedure: (§3) Analytes were serially diluted 1.2× from 6 μg/mL to 1 μg/mL in the 1×PBS. 100 mM glycine (pH 2.87) regeneration solution, and 1×PBS for baseline stabilization was also prepared. Biosensor, ligand and analytes pair is following: (1) CH-1-antibodies-recombinant human or cynomolgus monkey CD3 delta/epsilon complex, (2) Fc-recombinant human or cynomolgus monkey CD3 delta/epsilon complex-antibodies (3) CH-1-antibodies-recombinant human or cynomolgus monkey PSMA; and (4) Ni-NTA-recombinant human or cynomolgus monkey PSMA-antibodies. Prior to the binding measurements, the sensor tips were pre-hydrated in 1×PBS for 30 min, followed by 1 cycles of pre-conditioning with 60-sec dips in glycine (pH 2.87). The sensor tips were then transferred to the ligand-containing wells for a 180-sec loading step. After a 120-sec baseline dip in 1×PBS, the binding kinetics were measured by dipping the ligand-coated sensors into the wells containing corresponding analyte at varying concentrations. The binding interactions were monitored over a 180-sec association period and followed by a 7.5 to 15-min dissociation period in new wells containing fresh 1×PBS.

[12] = biological target: T3, recombinant human CD3 delta/epsilon …; assay: Octet (BLI), conjugate captured on CH1 sensor, hu.CD3 d/e-Fc as analyte; unit inferred, M implied
Procedure: as §3

[13] = biological target: T2, cynomolgus CD3 on cynomolgus T cells …; assay: flow cytometry on HSC-F (cyCD3+) cells, detected with PE-conjugated anti-human kappa secondary antibody; control is the secondary antibody alone
Source text: Flow cytometry was used to test binding of conjugates to cell surface CD3 on human (Jurkat) and cynomolgus (HSC-F) T cells or PSMA on C4-2 cells.

T2 sequence (Q95LI5 22-198, chain 1 of 3): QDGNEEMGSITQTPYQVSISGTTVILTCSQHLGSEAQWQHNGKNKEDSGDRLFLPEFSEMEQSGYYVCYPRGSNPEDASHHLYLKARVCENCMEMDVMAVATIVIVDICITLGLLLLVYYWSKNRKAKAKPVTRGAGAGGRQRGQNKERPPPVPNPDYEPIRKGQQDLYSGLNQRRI
T2 sequence (Q95LI8 22-171, chain 2 of 3): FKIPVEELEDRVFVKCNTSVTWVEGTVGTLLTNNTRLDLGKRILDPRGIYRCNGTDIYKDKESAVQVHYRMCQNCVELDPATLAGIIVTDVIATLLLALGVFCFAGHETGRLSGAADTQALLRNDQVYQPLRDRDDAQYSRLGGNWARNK
T2 sequence (Q95LI7 23-181, chain 3 of 3): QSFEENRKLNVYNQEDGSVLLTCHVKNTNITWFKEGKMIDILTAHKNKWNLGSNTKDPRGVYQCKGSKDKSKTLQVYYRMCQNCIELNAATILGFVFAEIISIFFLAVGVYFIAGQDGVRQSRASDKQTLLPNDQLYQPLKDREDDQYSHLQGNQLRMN
T1 sequence (P07766 23-207, chain 1 of 3): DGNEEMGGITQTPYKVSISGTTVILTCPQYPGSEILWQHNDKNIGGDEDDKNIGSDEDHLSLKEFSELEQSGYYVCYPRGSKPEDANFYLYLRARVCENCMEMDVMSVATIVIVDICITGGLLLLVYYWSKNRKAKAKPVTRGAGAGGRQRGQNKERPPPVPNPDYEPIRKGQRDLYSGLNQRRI
T1 sequence (P04234 22-171, chain 2 of 3): as the sequence (Q95LI8 22-171, chain 2 of 3) above, with V5I, K15N, V20I, T32S, N33D, N34I, A64T, N74S, L83V, R141H counted along it
T1 sequence (P09693 23-182, chain 3 of 3): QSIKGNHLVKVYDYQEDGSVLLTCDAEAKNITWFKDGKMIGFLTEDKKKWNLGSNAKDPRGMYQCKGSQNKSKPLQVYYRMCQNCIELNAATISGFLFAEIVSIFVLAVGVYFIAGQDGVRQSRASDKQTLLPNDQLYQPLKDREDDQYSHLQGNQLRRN
T3 sequence (P04234 22-105, stated change not applied, chain 1 of 2): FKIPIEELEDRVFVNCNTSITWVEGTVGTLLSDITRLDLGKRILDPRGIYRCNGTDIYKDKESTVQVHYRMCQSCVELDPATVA
T3 sequence (P07766 23-126, stated change not applied, chain 2 of 2): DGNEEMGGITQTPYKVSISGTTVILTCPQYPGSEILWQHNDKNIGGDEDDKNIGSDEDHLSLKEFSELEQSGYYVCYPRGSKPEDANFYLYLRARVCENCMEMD

Binder	IC50 [1] [nM]	MFI [2]	MFI [3]	MFI [4]	MFI [5]	MFI [6]	MFI [7]	MFI [8]	IC50 [9] [nM]	IC50 [10] [nM]	Kd [11] [nM]	Kd [12] [nM]	binding result [13]
B1	17.7	610	650	610	643	600	666	559	–	–	–	–	–
B2	7.73	28500	41400	10500	50600	3560	54400	1400	–	–	–	–	–
B3	–	–	–	–	–	–	–	–	3.8	5.9	–	–	–
B4	4.46	31700	41600	13400	48000	4430	51800	1400	–	–	–	–	–
B5	119	2760	9950	986	27900	637	39400	559	–	–	–	–	–
B6	–	1450	1450	1440	1460	1400	1470	1400	–	–	–	–	–
B7	70.4	4240	13600	2040	28900	1570	35400	1250	–	–	–	–	–
B8	78	7670	22000	2120	42000	837	54600	559	–	–	–	–	–
B9	677	573	598	597	835	572	2200	559	–	–	–	–	–
B10	–	1450	1450	1440	1460	1400	1470	1400	–	–	–	–	–
B11	139	3270	12700	1610	31300	688	46300	559	–	–	–	–	–
B12	–	–	–	–	–	–	–	–	3.4	4.6	–	–	–
B13	–	–	–	–	–	–	–	–	–	–	11	5.13	–
B14	–	620	620	615	620	599	650	559	–	–	–	–	–
B15	–	–	–	–	–	–	–	–	–	–	–	–	no binding
